The target of this assay is T1, FliC flagellin of S. enterica serovar Typhimurium (Salmonella enterica serovar …, UniProt P06179).
T1 construct: FliC flagellin, Salmonella enterica serovar Typhimurium; also called purified FliC; source: bought: Sigma-Aldrich
Briefly: BLI; sdAb immobilized on nickel-charged biosensors and dipped into FliC at 250, 125, 62.5, 31.3 and 15.6 nM. The note with it: both partners purified.

T1 sequence (P06179 whole entry): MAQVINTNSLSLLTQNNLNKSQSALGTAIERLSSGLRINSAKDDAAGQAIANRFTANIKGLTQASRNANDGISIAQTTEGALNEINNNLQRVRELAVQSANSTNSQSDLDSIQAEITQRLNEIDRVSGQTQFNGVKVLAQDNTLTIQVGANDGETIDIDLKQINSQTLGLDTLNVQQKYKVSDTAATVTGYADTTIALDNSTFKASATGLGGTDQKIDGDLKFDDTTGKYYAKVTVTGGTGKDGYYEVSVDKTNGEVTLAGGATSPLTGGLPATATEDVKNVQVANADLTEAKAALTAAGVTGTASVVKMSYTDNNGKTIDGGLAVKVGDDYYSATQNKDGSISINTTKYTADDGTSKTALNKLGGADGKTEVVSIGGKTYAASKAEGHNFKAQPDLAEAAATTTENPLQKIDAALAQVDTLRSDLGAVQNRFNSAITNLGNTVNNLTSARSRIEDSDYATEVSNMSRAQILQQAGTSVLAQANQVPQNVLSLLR

B1: Abi-Se07 (VHH)
VHH: QVQLVESGGGLVQAGGSLRLSCTDSGRTFSVKPMGWFRQAPGMEREFVAAASFTGVSTFYADSVKDRFTIFRDKDKNTMDLQINSLKPEDTGAYYCAGTTRTLWGSKWRDVLEYEYWGQGTQVTVSS
notes: X2 = V or K), CDR2 ASX3TGVST (X3 = F or Y), CDR3 AGTX4RTLWGSKWRDX5X6EYEY (X4 = T or L; X5 = V or R; X6 = L or R); CDR3 is 20 amino acids long; The c-myc tag lies between the VHH and the His6 tag, so it probably stayed on the protein; Gene synthesized and cloned into pET27b; also called 0A07; anti-Salmonella sdAb; not shown: His6, C-terminal, kept
The term Kd denotes the constant that tells how readily two partners part at equilibrium. High values mean weaker binding, low ones tighter binding. With B1, the Kd was determined as 16.2 nM.

These data come from publication PMC6901939, “A Novel Single Domain Antibody Targeting FliC Flagellin of Salmonella enterica for Effective Inhibition of Host Cell Invasion” (Frontiers in Microbiology, 2019).
